Our source for the binding result and Kd values is article PMC5603729 (Cell Reports, 2017).

Assay [1] deals with T1, S. cerevisiae Rrp45 (subunit of the crystallised Exo-9) (S. cerevisiae, UniProt Q05636 1-305).
T1 sequence: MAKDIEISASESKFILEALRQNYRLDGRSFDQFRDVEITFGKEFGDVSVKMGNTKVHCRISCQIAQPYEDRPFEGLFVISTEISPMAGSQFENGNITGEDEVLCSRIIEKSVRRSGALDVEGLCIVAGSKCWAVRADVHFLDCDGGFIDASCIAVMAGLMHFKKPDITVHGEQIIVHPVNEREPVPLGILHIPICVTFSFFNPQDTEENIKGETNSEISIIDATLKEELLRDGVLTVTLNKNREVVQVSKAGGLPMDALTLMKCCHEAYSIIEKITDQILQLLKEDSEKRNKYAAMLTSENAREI
The experiment in a line: crystal structure.

Assay [2] concerns the target S. cerevisiae Exo-9 core complex (recombinant, untagged) (S. cerevisiae, UniProt P46948;Q12277;P25359;Q05636;P53256;P48240;P38792;Q08285;P53859). The assay can be described thus: MST.

B1: S. cerevisiae Rrp40 (subunit of the crystallised Exo-9) (natural protein)
chain: MSTFIFPGDSFPVDPTTPVKLGPGIYCDPNTQEIRPVNTGVLHVSAKGKSGVQTAYIDYSSKRYIPSVNDFVIGVIIGTFSDSYKVSLQNFSSSVSLSYMAFPNASKKNRPTLQVGDLVYARVCTAEKELEAEIECFDSTTGRDAGFGILEDGMIIDVNLNFARQLLFNNDFPLLKVLAAHTKFEVAIGLNGKIWVKCEELSNTLACYRTIMECCQKNDTAAFKDIAKRQFKEILTVKEE
With B1, in assay [1], the binding result was “binds”.

B2: Mpp6^FL S184C labeled with red-maleimide (natural protein)
chain: MSANNGVTGKLSSRVMNMKFMKFGKTDDEESSNSNTPSNINSDVEPIEQKGKLFGLDDSAWDLNSYKDDLKKISGKEKKKVKRVVYKKRPNLIISNVGYSELRKPEGVISGRKTFGDNSDDSGSRKRKFDEGEQNEDEKRDAKDKEFTGSQDDGEDEYDLDKLFKDSIKKKKTNHNGKNKNRNCKK
modifications: cysteine-reactive fluorophore (red-maleimide) on the introduced cysteine 184
With B2, in assay [2], the Kd (in general, a measure of binding affinity in units of concentration) was around 82 nM.
